Experimental data from article doi:10.1101/2021.03.31.437858.

Assays:
Assay in all cases: native gel or EMSA
[1] = target: complex III (CIII) (bovine (endogenous in bovine heart mitochondria))
[2] = target: Apoptosis Inducing Factor 1 (AIFM1) (bovine (endogenous in bovine heart mitochondria))
[3] = target: cytochrome c oxidase (COX), monomeric (bovine (endogenous in bovine heart mitochondria)) (UniProt P00429)
[4] = target: complex V (CV) (bovine (endogenous in bovine heart mitochondria))

Chain of UniProt P00429 (P00429 whole entry, looked up): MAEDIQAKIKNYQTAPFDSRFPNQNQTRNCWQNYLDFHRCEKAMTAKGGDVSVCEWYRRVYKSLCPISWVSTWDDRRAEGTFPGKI

complex III (CIII) was tested. Which stoichiometry N [1] did it give?
The stoichiometry N was 2.

“Apoptosis Inducing Factor 1 (AIFM1) (natural protein)” was tested. Which stoichiometry N [2] did it give?
Its stoichiometry N is 2.

What about the percent of monomeric COX engaged in the complex [3] of the same substance?
Its percent of monomeric COX engaged in the complex is 10%.

And the stoichiometry N (AIFM1 per COX monomer) [3]?
Its stoichiometry N (AIFM1 per COX monomer) is 2.

complex V (CV) was tested. Which stoichiometry N [4] did it give?
The stoichiometry N was 2.
